Results published in patent US20250177505A1, “CANCER VACCINE COMPRISING EPITOPE OF C-MET AND EPITOPE OF HIF1ALPHA, AND USE THEREOF” (KOREA UNIVERSITY RESEARCH AND BUSINESS FOUNDATION, priority 2022, published 2025).
Entries after “also recorded” stand apart in the source; their conditions may differ.

Experiments:
[1] = test system: bone marrow monocytes (BMMs); assay: Osteoclastogenesis analysis in bone marrow monocytes; type: cell-based, C3(1)-Tag mice; details: BMM with M-CSF 30 ng/mL, RANKL 100 ng/mL, IFN-γ 50, 100 ng/mL; vs positive control
Procedure: Primary mouse bone marrow monocytes (BMMs) were isolated from the hind limb bones (two femurs and two tibiae) of 4 to 8 week-old C3(1)-Tag mice. The mouse BMMs were flushed into a 15 ml tube via 8 ml of a serum-free 2 mM EDTA α-MEM medium. A Lymphocyte Separation Medium (LSM; MP Biomedicals; Catalog No. 50494) was dispensed into a new tube, 8 ml of the flushed BMMs were gently added thereon and centrifuged at 1600 rpm for 20 minutes at room temperature. The isolated BMMs were inoculated at 3×10^5 cells/well in a 48-well plate with 0.5 mL of a medium per well and incubated in α-MEM containing 10% FBS and 1% antibiotics.
BMMs in a negative control group were treated with M-CSF (30 ng/mL), BMMs in a positive control group were treated with M-CSF and RANKL (100 ng/mL), and BMMs in an experimental group were stimulated by treatment with M-CSF, RANKL, and IFN-γ(50, 100 ng/mL). On days 1, 3, 5, and 7 of culture, the medium was replaced, and each experimental group was treated with M-CSF, RANKL, and IFN-γ. After 9 days of culture, staining was performed using a TRAP staining kit (KT-008, KAMIYA biomedical company, Seattle, WA, USA) after fixing the cells with 10% formalin. For each well, TRAP-positive (TRAP^+) multinucleated cells (TRAP^+ MNC) were counted. All the experiments were independently repeated three times.

M6-bone cells = assay: Western blot of IFN-γ-treated cells; type: cell-based, mouse; details: 100 ng/ml IFN-γ, 18 hours
Procedure: M6 and M6-bone cells were stimulated with 100 ng/ml recombinant mouse IFN-γ and cultured in a medium containing 1% FBS for 18 hours. The cells were lysed in a buffered mixture of a PRO-PREPTM protein extraction solution (iNtRON Biotechnology, 17081) and a phosphatase inhibitor cocktail (Gen DEPOT, p3200-001). Protein concentration was measured using the Bradford assay (Bio-rad, 500-0006, Hercules, CA, USA). 30 μg of the protein was separated by SDS-polyacrylamide gel electrophoresis and transferred to a PVDF membrane (10600023), and then the membrane was blocked with Tris-buffered saline containing 0.05% Tween 20 and 5% non-fat milk powder for 1 hour. The PVDF membrane was incubated overnight at 4° C. with primary antibodies. HIF1α (NB100-105, Novusbio), c-MET, Akt (Cat #9272), and p-Akt (Cat #9271) antibodies were purchased from Cell Signaling Technology (Beverly, MA, USA), and β-actin (Cat #A5316) was purchased from Sigma (Saint Louis, MO, USA). Subsequently, a horseradish peroxidase-conjugated secondary antibody was cultured at room temperature for 1 hour. Immunoreactive bands were detected with a chemiluminescent reagent (Cat #RPN2106).

B1: IFN-γ: recombinant mouse IFN-γ, key cytokine of T-helper type 1 immunity (protein, UniProt P01580 23-155, looked up)
Interferon gamma: HGTVIESLESLNNYFNSSGIDVEEKSLFLDIWRNWQKDGDMKILQSQIISFYLRLFEVLKDNQAISNNISVIESHLITTFFSNSKAKKDAFMSIAKFEVNNPQVQRQAFNELIRVVHQLLPESSLRKRKRSRC
- osteoclastogenesis in vitro [1]: completely inhibited; also recorded: inhibits
- Expression of c-MET (M6-bone cells): decreased
- Expression of p-Akt (M6-bone cells): decreased
